Publication PMC4678846

Substrate: CC(C)(C)OC(=O)NCCCC[C@H](N)C(=O)O
Test: purified protein
Conditions: wild-type tRNA^Pyl, 10 mM ATP, 10 mM MgCl2, pH 7.2, 37 °C, apparent, amino acid not given, BocK inferred

B1: MbPylRS (Methanosarcina barkeri str. Fusaro) (protein)
chain: MDKKPLDVLISATGLWMSRTGTLHKIKHYEVSRSKIYIEMACGDHLVVNNSRSCRTARAFRHHKYRKTCKRCRVSDEDINNFLTRSTEGKTSVKVKVVSAPKVKKAMPKSVSRAPKPLENPVSAKASTDTSRSVPSPAKSTPNSPVPTSAPAPSLTRSQLDRVEALLSPEDKISLNIAKPFRELESELVTRRKNDFQRLYTNDREDYLGKLERDITKFFVDRDFLEIKSPILIPAEYVERMGINNDTELSKQIFRVDKNLCLRPMLAPTLYNYLRKLDRILPDPIKIFEVGPCYRKESDGKEHLEEFTMVNFCQMGSGCTRENLESLIKEFLDYLEIDFEIVGDSCMVYGDTLDIMHGDLELSSAVVGPVPLDREWGIDKPWIGAGFGLERLLKVMHGFKNIKRASRSESYYNGISTNL
Work on B1 yielded a Km of 1030 ± 50 µM.
